Source: article PMC9482650, “Quantitative fragmentomics allow affinity mapping of interactomes” (Nature Communications, 2022)

T1: APBA2_1, Q99767
T1 sequence (Q99767 563-664, limits assumed, looked up): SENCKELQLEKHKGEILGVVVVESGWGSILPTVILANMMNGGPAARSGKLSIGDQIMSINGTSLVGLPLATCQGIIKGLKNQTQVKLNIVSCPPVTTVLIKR

T2: APBA2_2, Q99767
T2 sequence (Q99767 654-744, limits assumed, looked up): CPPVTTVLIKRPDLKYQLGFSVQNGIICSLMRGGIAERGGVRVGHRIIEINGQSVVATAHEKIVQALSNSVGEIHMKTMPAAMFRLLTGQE

T3: ARHGAP21, Q5T5U3
T3 sequence (Q5T5U3 45-169, limits assumed, looked up): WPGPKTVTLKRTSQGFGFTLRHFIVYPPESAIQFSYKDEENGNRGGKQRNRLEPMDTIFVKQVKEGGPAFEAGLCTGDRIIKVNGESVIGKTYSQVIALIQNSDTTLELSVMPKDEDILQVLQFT

T4: FRMPD1, Q5SYB0
T4 sequence (Q5SYB0 52-145, limits assumed, looked up): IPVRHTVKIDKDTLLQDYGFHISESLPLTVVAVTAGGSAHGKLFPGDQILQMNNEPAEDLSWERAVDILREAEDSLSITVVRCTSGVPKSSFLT

T5: GRIP1_3, Q9Y3R0
T5 sequence (Q9Y3R0 247-346, limits assumed, looked up): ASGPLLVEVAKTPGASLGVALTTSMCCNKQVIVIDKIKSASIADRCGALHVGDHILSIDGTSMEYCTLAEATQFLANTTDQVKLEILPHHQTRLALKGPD

T6: HTRA3, P83110
T6 sequence (P83110 354-453, limits assumed, looked up): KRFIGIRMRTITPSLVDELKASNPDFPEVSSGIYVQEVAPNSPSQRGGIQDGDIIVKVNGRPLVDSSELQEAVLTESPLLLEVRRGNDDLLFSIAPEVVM

T7: LNX2_3, Q8N448
T7 sequence (Q8N448 463-564, limits assumed, looked up): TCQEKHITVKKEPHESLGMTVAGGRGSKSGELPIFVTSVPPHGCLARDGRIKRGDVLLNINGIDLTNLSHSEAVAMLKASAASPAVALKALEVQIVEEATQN

T8: LRRC7, Q96NW7
T8 sequence (Q96NW7 1440-1537, limits assumed, looked up): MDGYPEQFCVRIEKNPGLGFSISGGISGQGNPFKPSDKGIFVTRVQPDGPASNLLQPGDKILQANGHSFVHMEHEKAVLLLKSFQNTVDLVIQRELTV

T9: NHERF3_3, Q5T2W1
T9 sequence (Q5T2W1 238-333, limits assumed, looked up): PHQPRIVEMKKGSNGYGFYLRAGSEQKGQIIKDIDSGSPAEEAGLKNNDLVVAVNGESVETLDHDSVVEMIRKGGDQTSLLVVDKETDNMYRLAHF

T10: NHERF3_4, Q5T2W1
T10 sequence (Q5T2W1 373-468, limits assumed, looked up): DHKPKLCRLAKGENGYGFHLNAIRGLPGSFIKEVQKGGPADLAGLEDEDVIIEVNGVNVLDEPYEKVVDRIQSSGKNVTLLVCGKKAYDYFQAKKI

T11: PDZD2_2, O15018
T11 sequence (O15018 329-429, limits assumed, looked up): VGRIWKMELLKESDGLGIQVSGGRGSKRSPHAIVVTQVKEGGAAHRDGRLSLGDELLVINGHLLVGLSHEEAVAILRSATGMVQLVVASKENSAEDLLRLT

T12: PDZD7_3, Q9H5P4
T12 sequence (Q9H5P4 857-944, limits assumed, looked up): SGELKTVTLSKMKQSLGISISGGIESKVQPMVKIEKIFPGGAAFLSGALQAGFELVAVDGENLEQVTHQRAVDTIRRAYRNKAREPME

T13: TJP3_3, O95049
T13 sequence (O95049 375-456, limits assumed, looked up): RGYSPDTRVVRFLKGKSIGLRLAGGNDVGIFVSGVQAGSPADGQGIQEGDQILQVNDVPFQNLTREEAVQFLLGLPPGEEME

B1: SLCO1B1, Q9Y6L6 (peptide)
chain: SAGADSETHC
B2: ADRA1D, P25100 (peptide)
chain: DYSNLRETDI
B3: LPAR1, Q92633 (peptide)
chain: GVHSNDHSVV
B4: SLC17A1, Q14916 (peptide)
chain: WAKEKQHTRL

target: T1, APBA2_1, Q99767; experiment: holdup assay; parameters: key: below the threshold = too weak to quantify, mostly under pKd 3.1 to 4; conditions: plain residues with an end cap or a label only (N-terminal biotin on a linker: ado-ado)

pKd	Binder
below the threshold	B1
below the threshold	B2
below the threshold	B3
below the threshold	B4

target: T2, APBA2_2, Q99767; experiment: holdup assay; parameters: key: below the threshold = too weak to quantify, mostly under pKd 3.1 to 4; conditions: plain residues with an end cap or a label only (N-terminal biotin on a linker: ado-ado)

pKd	Binder
below the threshold	B1
below the threshold	B2
below the threshold	B3
below the threshold	B4

target: T3, ARHGAP21, Q5T5U3; experiment: holdup assay; parameters: key: below the threshold = too weak to quantify, mostly under pKd 3.1 to 4; conditions: plain residues with an end cap or a label only (N-terminal biotin on a linker: ado-ado)

pKd	Binder
4.02	B1
3.98	B2
below the threshold	B3
3.81	B4

target: DLG1_1, Q12959; experiment: holdup assay; parameters: key: below the threshold = too weak to quantify, mostly under pKd 3.1 to 4; conditions: plain residues with an end cap or a label only (N-terminal biotin on a linker: ado-ado)

pKd	Binder
below the threshold	B1
4.1	B2
3.74	B3
3.64	B4

target: DLG2_3, Q15700; experiment: holdup assay; parameters: key: below the threshold = too weak to quantify, mostly under pKd 3.1 to 4; conditions: plain residues with an end cap or a label only (N-terminal biotin on a linker: ado-ado)

pKd	Binder
below the threshold	B1
below the threshold	B2
below the threshold	B3
below the threshold	B4

target: T4, FRMPD1, Q5SYB0; experiment: holdup assay; parameters: key: below the threshold = too weak to quantify, mostly under pKd 3.1 to 4; conditions: plain residues with an end cap or a label only (N-terminal biotin on a linker: ado-ado)

pKd	Binder
below the threshold	B1
below the threshold	B2
below the threshold	B3
below the threshold	B4

target: FRMPD3, Q5JV73; experiment: holdup assay; parameters: key: below the threshold = too weak to quantify, mostly under pKd 3.1 to 4; conditions: plain residues with an end cap or a label only (N-terminal biotin on a linker: ado-ado)
Sequence (Q5JV73 12-100): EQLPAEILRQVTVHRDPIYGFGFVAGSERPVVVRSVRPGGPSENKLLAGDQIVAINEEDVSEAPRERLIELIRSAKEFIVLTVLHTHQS

pKd	Binder
below the threshold	B1
below the threshold	B2
below the threshold	B3
below the threshold	B4

target: GOPC, Q9HD26; experiment: holdup assay; parameters: key: below the threshold = too weak to quantify, mostly under pKd 3.1 to 4; conditions: plain residues with an end cap or a label only (N-terminal biotin on a linker: ado-ado)

pKd	Binder
below the threshold	B1
below the threshold	B2
3.59	B3
4.91	B4

target: T5, GRIP1_3, Q9Y3R0; experiment: holdup assay; parameters: key: below the threshold = too weak to quantify, mostly under pKd 3.1 to 4; conditions: plain residues with an end cap or a label only (N-terminal biotin on a linker: ado-ado)

pKd	Binder
below the threshold	B1
below the threshold	B2
below the threshold	B3
below the threshold	B4

target: GRIP2_7, Q9C0E4; experiment: holdup assay; parameters: key: below the threshold = too weak to quantify, mostly under pKd 3.1 to 4; conditions: plain residues with an end cap or a label only (N-terminal biotin on a linker: ado-ado)
Sequence (Q9C0E4 934-1023): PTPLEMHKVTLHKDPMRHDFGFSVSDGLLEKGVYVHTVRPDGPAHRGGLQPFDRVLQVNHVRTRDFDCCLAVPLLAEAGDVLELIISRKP

pKd	Binder
below the threshold	B1
below the threshold	B2
below the threshold	B3
below the threshold	B4

target: T6, HTRA3, P83110; experiment: holdup assay; parameters: key: below the threshold = too weak to quantify, mostly under pKd 3.1 to 4; conditions: plain residues with an end cap or a label only (N-terminal biotin on a linker: ado-ado)

pKd	Binder
below the threshold	B1
below the threshold	B2
below the threshold	B3
below the threshold	B4

target: IL16_3, Q14005; experiment: holdup assay; parameters: key: below the threshold = too weak to quantify, mostly under pKd 3.1 to 4; conditions: plain residues with an end cap or a label only (N-terminal biotin on a linker: ado-ado)
Sequence (Q14005 1107-1207): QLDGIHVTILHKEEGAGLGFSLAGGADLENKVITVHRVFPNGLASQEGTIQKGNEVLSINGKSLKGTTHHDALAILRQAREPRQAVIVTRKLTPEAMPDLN

pKd	Binder
below the threshold	B1
below the threshold	B2
below the threshold	B3
below the threshold	B4

target: Inadl_3, Q8NI35; experiment: holdup assay; parameters: key: below the threshold = too weak to quantify, mostly under pKd 3.1 to 4; conditions: plain residues with an end cap or a label only (N-terminal biotin on a linker: ado-ado)
Sequence (Q8NI35 359-469): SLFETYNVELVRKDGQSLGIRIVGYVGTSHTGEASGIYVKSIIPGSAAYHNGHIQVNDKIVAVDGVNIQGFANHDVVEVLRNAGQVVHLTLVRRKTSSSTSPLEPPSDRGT

pKd	Binder
below the threshold	B1
3.84	B2
below the threshold	B3
below the threshold	B4

target: Inadl_5, Q8NI35; experiment: holdup assay; parameters: key: below the threshold = too weak to quantify, mostly under pKd 3.1 to 4; conditions: plain residues with an end cap or a label only (N-terminal biotin on a linker: ado-ado)
Sequence (Q8NI35 673-780): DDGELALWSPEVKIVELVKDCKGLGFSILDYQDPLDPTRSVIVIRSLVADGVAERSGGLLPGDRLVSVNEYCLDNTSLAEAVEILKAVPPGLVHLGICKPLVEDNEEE

pKd	Binder
below the threshold	B1
below the threshold	B2
below the threshold	B3
below the threshold	B4

target: Inadl_9, Q8NI35; experiment: holdup assay; parameters: key: below the threshold = too weak to quantify, mostly under pKd 3.1 to 4; conditions: plain residues with an end cap or a label only (N-terminal biotin on a linker: ado-ado)
Sequence (Q8NI35 1530-1615): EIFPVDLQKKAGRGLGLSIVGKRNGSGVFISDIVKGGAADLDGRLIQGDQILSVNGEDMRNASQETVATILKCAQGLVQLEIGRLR

pKd	Binder
below the threshold	B1
below the threshold	B2
below the threshold	B3
below the threshold	B4

target: LNX1_1, Q8TBB1; experiment: holdup assay; parameters: key: below the threshold = too weak to quantify, mostly under pKd 3.1 to 4; conditions: plain residues with an end cap or a label only (N-terminal biotin on a linker: ado-ado)
Sequence (Q8TBB1 261-371): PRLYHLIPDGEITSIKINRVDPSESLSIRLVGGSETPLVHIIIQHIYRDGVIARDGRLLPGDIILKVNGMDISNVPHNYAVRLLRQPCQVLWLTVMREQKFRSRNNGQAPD

pKd	Binder
below the threshold	B1
4.44	B2
below the threshold	B3
3.47	B4

target: T7, LNX2_3, Q8N448; experiment: holdup assay; parameters: key: below the threshold = too weak to quantify, mostly under pKd 3.1 to 4; conditions: plain residues with an end cap or a label only (N-terminal biotin on a linker: ado-ado)

pKd	Binder
below the threshold	B1
below the threshold	B2
below the threshold	B3
below the threshold	B4

target: T8, LRRC7, Q96NW7; experiment: holdup assay; parameters: key: below the threshold = too weak to quantify, mostly under pKd 3.1 to 4; conditions: plain residues with an end cap or a label only (N-terminal biotin on a linker: ado-ado)

pKd	Binder
below the threshold	B1
3.48	B2
below the threshold	B3
below the threshold	B4

target: MAST1, Q9Y2H9; experiment: holdup assay; parameters: key: below the threshold = too weak to quantify, mostly under pKd 3.1 to 4; conditions: plain residues with an end cap or a label only (N-terminal biotin on a linker: ado-ado)
Sequence (Q9Y2H9 962-1065): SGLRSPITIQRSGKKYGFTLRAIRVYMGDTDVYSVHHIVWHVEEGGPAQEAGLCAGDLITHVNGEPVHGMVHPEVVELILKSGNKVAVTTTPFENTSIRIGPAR

pKd	Binder
3.9	B1
4.34	B2
3.89	B3
4.89	B4

target: T9, NHERF3_3, Q5T2W1; experiment: holdup assay; parameters: key: below the threshold = too weak to quantify, mostly under pKd 3.1 to 4; conditions: plain residues with an end cap or a label only (N-terminal biotin on a linker: ado-ado)

pKd	Binder
below the threshold	B1
below the threshold	B2
below the threshold	B3
4.28	B4

target: T10, NHERF3_4, Q5T2W1; experiment: holdup assay; parameters: key: below the threshold = too weak to quantify, mostly under pKd 3.1 to 4; conditions: plain residues with an end cap or a label only (N-terminal biotin on a linker: ado-ado)

pKd	Binder
below the threshold	B1
below the threshold	B2
below the threshold	B3
4.11	B4

target: T11, PDZD2_2, O15018; experiment: holdup assay; parameters: key: below the threshold = too weak to quantify, mostly under pKd 3.1 to 4; conditions: plain residues with an end cap or a label only (N-terminal biotin on a linker: ado-ado)

pKd	Binder
3.68	B1
4.18	B2
4.99	B3
below the threshold	B4

target: T12, PDZD7_3, Q9H5P4; experiment: holdup assay; parameters: key: below the threshold = too weak to quantify, mostly under pKd 3.1 to 4; conditions: plain residues with an end cap or a label only (N-terminal biotin on a linker: ado-ado)

pKd	Binder
below the threshold	B1
4.97	B2
3.68	B3
4.87	B4

target: TJP1_3, Q07157; experiment: holdup assay; parameters: key: below the threshold = too weak to quantify, mostly under pKd 3.1 to 4; conditions: plain residues with an end cap or a label only (N-terminal biotin on a linker: ado-ado)
Sequence (Q07157 416-512): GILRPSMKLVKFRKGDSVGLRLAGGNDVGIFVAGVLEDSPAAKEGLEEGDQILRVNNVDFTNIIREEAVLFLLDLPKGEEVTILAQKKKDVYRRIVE

pKd	Binder
below the threshold	B1
below the threshold	B2
below the threshold	B3
below the threshold	B4

target: T13, TJP3_3, O95049; experiment: holdup assay; parameters: key: below the threshold = too weak to quantify, mostly under pKd 3.1 to 4; conditions: plain residues with an end cap or a label only (N-terminal biotin on a linker: ado-ado)

pKd	Binder
below the threshold	B1
below the threshold	B2
below the threshold	B3
below the threshold	B4
